Test results published in patent US20200239927A1, “SENSOR FOR CYANURIC ACID DETECTION” (WISCONSIN ALUMNI RESEARCH FOUNDATION, priority 2019, published 2020).
Positions count from the first letter of the chain named.

Key:
AtzR [1] = assay: Fold repression of GFP reporter by co-expressed AtzR; type: cell-based; settings: minimal medium
Method: (§1) To measure fold repression, each reporter plasmid was co-transformed with low and high copy sensor plasmid separately. The end results include two test versions for each reporter plasmid: (the reporter plasmid, low copy sensor plasmid), (the reporter, high copy sensor plasmid), reporter plasmids were transformed with either of the sensor plasmids. Similar to the process of measuring promoter activity, the activities of at least 3 biological replicates were measured for each reporter and sensor plasmid pair. The only difference was that 50 μg/mL kanamycin and […] Spectinomycin were used to maintain both of the reporter and sensor plasmids. The fold repression was calculated as a ratio of the fluorescence of reporter divided by the fluorescence of this reporter when it was paired with a sensor plasmid. To measure fold induction, the process of obtaining fold repression was followed. The only difference was the addition of 200 μM cyanuric acid during the growth. The fold induction was calculated as a ratio of the fluorescence of the induced state divided by the fluorescence of the repressed state.

DH10B E. coli cells = assay: Promoter activity: constitutive GFP reporter expression without AtzR; type: cell-based; settings: for transcriptional activity compared with WT promoter, measured by reporter expression: E. coli, promoter only, no AtzR; for GFP reporter expression of cells carrying only the promoter: no AtzR present, rich and minimal media
Method: Fluorescence measurement: To measure promoter activities, transformed reporter plasmids (including WT promoter plasmid) were transformed into DH10B cells (NEB) using electroporation and plated cells on LB agar plates with kanamycin (50 ug/mL). After overnight growth at 37° C., at least 3 individual colonies were selected for each reporter plasmid and inoculated into 150 μL LB medium with 50 μg/mL kanamycin in a 96-well plate. After 3 hours of growth at 37° C. in a multi-plate shaker (1100 rpm, Southwest Science), cells were diluted 1:50 into 150 μL LB medium or MOPS medium (supplemented with 0.4% glucose and 1× BME vitamin) with 50 μg/mL kanamycin in a 96-well plate. Cells were grown at 37° C. with shaking (1100 rpm). After 16 hours, OD600 and fluorescence (excitation at 488 nm and emission at 520 nm with a gain of 40) of each well was measured using a multi-well plate reader (Synergy HTX, BioTek .Inc). Fluorescence was normalized against OD600. Blank (normalized fluorescence of cells carrying no GFP) was subtracted from those measurements. Mean and standard deviation of each reporter plasmid activity were calculated from measurements of 3 biological replicates.

AtzR [2] = assay: Fold induction of GFP reporter by cyanuric acid with co-expressed AtzR; type: cell-based; settings: for response to cyanuric acid (inducibility) / fold activation (ratio of GFP with and without cyanuric acid): 200 μM cyanuric acid; for response to cyanuric acid (inducibility) / uninduced baseline (no cyanuric acid): AtzR co-expressed; for increase in reporter expression in response to cyanuric acid: E. coli, medium not stated
Method: as §1

AtzR [3] = assay: Cyanuric acid dose response and visual detection limit of the AtzR biosensor; type: cell-based, E. coli DH10B; settings: for cyanuric acid concentration at which signal begins to saturate: rich and minimal media (125 ppm)
Method: To obtain transfer functions of various reporter and sensor plasmid pairs, different concentrations of cyanuric acid were delivered via DMSO to cultures (less than 1% of the total volume). After growth for 16 hours, fluorescence was measured and normalized similar to previous experiments.
Visual detection limit: To determine the visual detection limit in LB and MOPS media, E. coli DH10B with or without constitutive GFP expression was grown in LB with appropriate antibiotics for 16 hours in […] on a shaker(1100 rpm). Two 2 mL aliquots from each culture were spun down at 5000 G for 5 minutes in a benchtop centrifuge at room temperature. The media was aspirated out and the cell pellets resuspended in either 2 mL LB or 2 mL MOPS media. The spin-down and resuspension procedure was repeated two more times. Then, cells without GFP in LB (or MOPS) were mixed with cells carrying GFP in LB (or MOPS) to 150 μL with various ratios (cells without GFP-cells with GFP: 100%-0%, 95%-5%, 90%-10%, 85%-15%, 70%-30%, 55%-45%, 30%-70%, 0%-100%). After measuring the fluorescence and OD600 of the mixed cultures in a 96-well plate, the cultures were transferred to ultra-thin strip tubes ordered by increasing percentage of cells carrying GFP. Five individuals were asked to identify the culture that they could be confident to tell apart (in terms of the color of the culture) from the culture containing no cells with GFP (100%-0%). The identification process for cultures in LB and MOPS was performed by placing culture tubes in front a piece of white paper. The weighted average of fluorescence of cultures was identified by five individuals for cultures in LB and MOPS. The calculated weights averages were defined and used as the visual detection limits in FIGS. 7-10 related experiments.

AtzR, sequence (as listed by the source): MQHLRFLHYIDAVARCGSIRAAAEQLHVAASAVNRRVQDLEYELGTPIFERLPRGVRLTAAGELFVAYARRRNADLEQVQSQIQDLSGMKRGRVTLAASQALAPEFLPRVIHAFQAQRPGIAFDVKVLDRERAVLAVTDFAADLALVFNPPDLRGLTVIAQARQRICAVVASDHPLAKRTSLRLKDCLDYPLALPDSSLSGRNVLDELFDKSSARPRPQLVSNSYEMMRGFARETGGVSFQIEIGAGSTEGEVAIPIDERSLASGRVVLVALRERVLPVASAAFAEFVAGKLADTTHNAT

## Promoter 10: group 2 promoter variant; apFAB spacer replaced with RBS L and R (DNA TTGACAGGTGCCGGATCGGCACCTATAATAGATTCATGATGA; expressed or natural sequence)
AtzR [1]
  fold repression (ratio of GFP expression without and with AtzR): 50 fold
DH10B E. coli cells
  transcriptional activity compared with WT promoter, measured by reporter expression: transcriptionally more active than WT promoter
AtzR [2]
  response to cyanuric acid (inducibility): lack of cyanuric acid response
  increase in reporter expression in response to cyanuric acid: greater than two-fold increase

## Promoter 12: group 2 promoter variant, sequence SEQ ID NO: 14 (DNA GGTGCCGACACGGCACCTTTTTGTACCTATAATAGATTCATGATGA; expressed or natural sequence)
DH10B E. coli cells
  transcriptional activity compared with WT promoter, measured by reporter expression: transcriptionally more active than WT promoter

## Promoter 13: group 2 promoter variant; apFAB spacer replaced with RBS in R-L orientation (DNA TTGACAGGTGCCGATCCGGCACCTATAATAGATTCATGATGA; expressed or natural sequence)
DH10B E. coli cells
  transcriptional activity compared with WT promoter, measured by reporter expression: transcriptionally more active than WT promoter
AtzR [2]
  increase in reporter expression in response to cyanuric acid: greater than two-fold increase

## Promoter 15: group 2 promoter variant; RBS placed upstream of -35 (DNA GGTGCCGATCCGGCACCTTGACATCGCATCTTTTTGTACCTATAATAGATTCATGATGA; expressed or natural sequence)
DH10B E. coli cells
  transcriptional activity compared with WT promoter, measured by reporter expression: transcriptionally more active than WT promoter
AtzR [3]; minimal media
  lower threshold of detection of cyanuric acid: ~15 µM
AtzR [3]
  cyanuric acid concentration at which signal begins to saturate: 1 mM
AtzR [3]; rich media
  lower threshold of detection of cyanuric acid: ~25 µM

## Promoter 16: group 2 promoter variant, sequence SEQ ID NO: 18 (DNA GGTGCCGATCCGGCACCTTTTTGTACCTATAATAGATTCATGATGA; expressed or natural sequence)
DH10B E. coli cells
  transcriptional activity compared with WT promoter, measured by reporter expression: transcriptionally more active than WT promoter

B1: Promoter 11: group 2 promoter variant; RBS placed upstream of -35 (nucleic acid)
DNA: CAAGATCGGTGCCGGATCGGCACCAGTTAGGTCTTGACATCGCATCTTTTTGTACCTATAATAGATTCATGATGA
modifications: expressed or natural sequence
DH10B E. coli cells
  transcriptional activity compared with WT promoter, measured by reporter expression: transcriptionally more active than WT promoter

B2: Promoter 14: group 2 promoter variant, sequence SEQ ID NO: 16 (nucleic acid)
DNA: GACCTAACTGGTGCCGATCCGGCACCGATCTTGTTGACATCGCATCTTTTTGTACCTATAATAGATTCATGATGA
modifications: expressed or natural sequence
DH10B E. coli cells
  transcriptional activity compared with WT promoter, measured by reporter expression: transcriptionally more active than WT promoter

B3: Promoter 7: group 1 promoter variant of presumed intermediate strength, -35 site mutated toward E. coli consensus (nucleic acid)
DNA: TCGGTGCCGGATCGGCACCAGTTAGGTCGGAAAAAGGCGGCAGACAAGTGCGCTTTTTGTACCTATATAGATTCATGATGA
modifications: expressed or natural sequence
DH10B E. coli cells
  transcriptional activity compared with WT promoter, measured by reporter expression: transcriptionally more active than WT promoter
  GFP reporter expression of cells carrying only the promoter: highest expression

B4: Promoter 4: group 1 promoter variant weakened by deleting a single base from the -10 site (nucleic acid)
DNA: B3 DNA with A44T, T68A
modifications: expressed or natural sequence
AtzR [2]
  response to cyanuric acid (inducibility): only promoter variant 2 was inducible

B5: Promoter 8: group 1 promoter variant of presumed intermediate strength, -35 site mutated toward E. coli consensus (nucleic acid)
DNA: B3 DNA with T68A
modifications: expressed or natural sequence
DH10B E. coli cells
  transcriptional activity compared with WT promoter, measured by reporter expression: transcriptionally more active than WT promoter
  GFP reporter expression of cells carrying only the promoter: highest expression
AtzR [2]
  increase in reporter expression in response to cyanuric acid: greater than two-fold increase

B6: Promoter 3: group 1 promoter variant weakened by deleting a single base from the -10 site (nucleic acid)
DNA: B3 DNA with A44T
modifications: expressed or natural sequence
AtzR [2]
  response to cyanuric acid (inducibility): only promoter variant 2 was inducible

B7: Promoter 1: group 1 promoter variant; Pseudomonas -10 site replaced with consensus E. coli -10 site (nucleic acid)
DNA: ATGCGAGTCAAAGCAAGATCGGTGCCGGATCGGCACCAGTTAGGTCGGAAAAAGGCGGCAGTCAAGTGCGCAGGGCGGCGTTATAATTGAACGAA
modifications: expressed or natural sequence
notes: group 1 promoter variant; Pseudomonas -10 site replaced with consensus E. coli -10 site
DH10B E. coli cells
  transcriptional activity compared with WT promoter, measured by reporter expression: transcriptionally more active than WT promoter
AtzR [3]; minimal media
  lower threshold of detection of cyanuric acid: ~15 µM
AtzR [3]
  cyanuric acid concentration at which signal begins to saturate: 1 mM
AtzR [3]; rich media
  lower threshold of detection of cyanuric acid: ~25 µM

B8: Promoter 2: group 1 promoter variant; sequence 3' of ABS 3 replaced with corresponding region of apFab71 (nucleic acid)
DNA: TCGGTGCCGGATCGGCACCAGTTAGGTCGGAAAAAGGCGGCAGTCAAGTGCGCTTTTTGTACCTATAATAGATTCATGATGA
modifications: expressed or natural sequence
DH10B E. coli cells
  transcriptional activity compared with WT promoter, measured by reporter expression: transcriptionally more active than WT promoter
AtzR [3]; minimal media
  lower threshold of detection of cyanuric acid: ~15 µM
AtzR [3]
  cyanuric acid concentration at which signal begins to saturate: 1 mM
AtzR [3]; rich media
  lower threshold of detection of cyanuric acid: ~25 µM
AtzR [2]
  response to cyanuric acid (inducibility): inducible
  increase in reporter expression in response to cyanuric acid: greater than two-fold increase
  uninduced baseline (no cyanuric acid): about 4000 fluorescence units
AtzR [2]; medium not specified
  fold activation (ratio of GFP with and without cyanuric acid): approximately 10 fold
AtzR [2]; minimal media
  fold activation (ratio of GFP with and without cyanuric acid): 15 fold

B9: Promoter 6: group 1 promoter variant with consensus E. coli -35 and apFab71 3' sequence, on a low-copy number plasmid (nucleic acid)
DNA: B8 DNA with T44A
AtzR [1]
  fold repression (ratio of GFP expression without and with AtzR): 10 fold
DH10B E. coli cells
  transcriptional activity compared with WT promoter, measured by reporter expression: transcriptionally more active than WT promoter
AtzR [2]; medium not specified
  fold activation (ratio of GFP with and without cyanuric acid): approximately 10 fold
AtzR [2]
  increase in reporter expression in response to cyanuric acid: greater than two-fold increase

B10: Promoter 5: group 1 promoter variant with consensus E. coli -35 and apFab71 3' sequence, on a high-copy number plasmid (nucleic acid)
DNA: B8 DNA with T44A
DH10B E. coli cells
  transcriptional activity compared with WT promoter, measured by reporter expression: transcriptionally more active than WT promoter
AtzR [2]; medium not specified
  fold activation (ratio of GFP with and without cyanuric acid): approximately 10 fold
AtzR [2]
  increase in reporter expression in response to cyanuric acid: greater than two-fold increase
  uninduced baseline (no cyanuric acid): 22000 fluorescence units
